# Entries after “also recorded” stand apart in the source; their conditions may differ. Where a SMILES comes first, the peptide text is derived from it. [ ]: non-standard residue; d: D form. The star is where a group is joined. Sta = CC(C)C[C@H](N)[C@@H](O)CC(=O)O; Isovaleryl = CC(C)CC(=O)*
# T1: AEP (Homo sapiens, UniProt Q99538)
# T1 sequence (Q99538 18-323): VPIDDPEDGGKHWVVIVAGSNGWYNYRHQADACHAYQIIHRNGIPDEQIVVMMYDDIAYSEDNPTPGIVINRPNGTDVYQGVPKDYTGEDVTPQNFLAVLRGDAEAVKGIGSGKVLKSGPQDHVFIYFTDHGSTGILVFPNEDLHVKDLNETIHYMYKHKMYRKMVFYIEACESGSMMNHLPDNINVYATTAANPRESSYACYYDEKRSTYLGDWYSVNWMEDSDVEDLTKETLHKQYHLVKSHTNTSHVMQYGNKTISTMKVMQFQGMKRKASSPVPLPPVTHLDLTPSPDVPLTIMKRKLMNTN
# B1: T102C: cystatin C mutant with threonine 102 replaced by cysteine, C-terminal 6His-tag (protein)
# chain: SSPGKPPRLVGGPMDASVEEEGVRRALDFAVGEYNKASNDMYHSRALQVVRARKQIVAGVNYFLDVELGRTTCTKCQPNLDNCPFHDQPHLKRKAFCSFQIYAVPWQGTMTLSKSTCQDAHHHHHH
# B2: cystatin C: naturally occurring 14 kDa protein that inhibits PLCPs and AEP (protein, listed as Homo sapiens)
# chain: MAGPLRAPLLLLAILAVALAVSPAAGSSPGKPPRLVGGPMDASVEEEGVRRALDFAVGEYNKASNDMYHSRALQVVRARKQIVAGVNYFLDVELGRTTCTKTQPNLDNCPFHDQPHLKRKAFCSFQIYAVPWQGTMTLSKSTCQDA
# modifications: Cystatin C
# Legend:
# [1] = Solubility in aqueous media; format: physicochemical; conditions: applicant's own observation
# [2] = tested on: endo-lysosomal proteases of purified lysosomes from mouse macrophages; experiment: In vitro digest of apo-HRP with purified macrophage lysosomes; format: biochemical; conditions: SDS-PAGE
# Description: Lysosomes isolated from bone-marrow derived macrophages using a Percoll density-gradient fractionation (400 ng/μL, 3.6 μL) were resuspended in assay buffer (50 mM Citrate, pH 4.5, 0.5% Triton X-100; 59 μL) Inhibitor (70 μM; 12 μL in PBS+5% DMSO) was added and the mixture incubated for 15 minutes. Protein substrate (1 mg/mL in PBS, 9 μL) was added to the mixture and the reaction was incubated at 37° C. At the indicated timepoints 20 μL of the reaction mixture was removed and boiled with LDS-sample buffer and analysed by SDS-PAGE.
# Cathepsin D and E = conditions: read-out: Ki for inhibition of Cathepsin D and E; cited from earlier work
# [3] = cited from earlier work
# mouse Cathepsin L = target: T2, mouse Cathepsin L (Mus musculus, UniProt P06797); experiment: Inhibition studies of recombinant Cathepsin L; format: biochemical; conditions: compared among mutants R77C, L117C, T102C; 5 ng Cathepsin L/well
# T2 construct: purchased R&D systems
# T2 sequence (P06797 114-333 limits assumed): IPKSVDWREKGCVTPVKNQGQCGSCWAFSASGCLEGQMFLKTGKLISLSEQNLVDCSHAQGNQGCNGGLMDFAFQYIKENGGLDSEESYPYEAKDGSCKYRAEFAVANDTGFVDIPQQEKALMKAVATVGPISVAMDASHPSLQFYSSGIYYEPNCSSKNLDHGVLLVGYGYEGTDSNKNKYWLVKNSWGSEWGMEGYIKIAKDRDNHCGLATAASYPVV
# Description: All protease inhibition studies were carried out as described previously^7-9 on a FLUOstar Optima Fluorimeter (BMG) with 360 nm excitation and 460 nm emission wavelength filters as described previously.^1-2,9-10 Recombinant Cathepsin D and Cathepsin S were purchased from R&D Systems.
# The mixture was gently shaken at room temperature for 5 minutes prior to the addition of Z-Leu-Arg-AMC (40 μM in assay buffer, made from a 1 mM DMSO Stock solution). 7-amino-4-methylcoumarin release was measured by fluorescence spectroscopy over time. Initial rates were plotted against inhibitor concentration^11.
# COS-7 cells, EGFr = experiment: Effect on EGF receptor downregulation and EGF signalling (Western blot); format: cell-based
# Description: COS7 cells growing in 12-well tissue culture plates were preincubated for 1 hour with or without cystatin C (0.35 mg/ml) or CPI (0.32 mg/ml) and then stimulated with 100 ng/ml EGF for the times shown. The cells were scraped from the well in 50 μl lysis buffer containing 50 mM Tris, 150 mM NaCl, 1 mM EGTA, 1 mM EDTA, 1% NP40 plus protease inhibitors (Roche, Miniprotease tablet). […] The blot was then stripped and reprobed for phosphor-Erk (p42/44 MAP kinase; Cell signalling) and as as loading control, Rsk2 (Santa Cruz) with appropriate secondary antibodies. The signals were quantitated using ImageJ analysis software.
# AEP = target: T1, AEP; conditions: via a distinct binding site; read-out: Ki for inhibition of AEP; cited from earlier work
molecule,measurement,setting,value
CC(C)CC(=O)N[C@H](C(=O)N[C@H](C(=O)N[C@@H](CC(C)C)[C@@H](O)CC(=O)N[C@@H](C)C(=O)N[C@@H](CC(C)C)[C@@H](O)CC(=O)O)C(C)C)C(C)C [pepstatin A] (Isovaleryl-VV[Sta]A[Sta]-OH),"water solubility, in words",[1],insolubility; also recorded: very insoluble
same,stabilization of apo-HRP against lysosomal degradation,"[2]; FIG. 9, listed as pepstatin",little or no stabilization
same,Ki,Cathepsin D and E,100 pM
same,"solubility in aqueous media, in words",[3],virtual insolubility in aqueous media
B1,inhibitory properties of cystatin C mutants,mouse Cathepsin L,most favourable inhibitory properties
B2,stabilization of apo-HRP against lysosomal degradation,"[2]; FIG. 9, listed as Cystatin C",appears to protect a fragment only
same,stabilization of apo-HRP against lysosomal degradation,"[2]; FIG. 9, listed as cystatin",little or no stabilization
same,EGFr level / downregulation after EGF challenge,"COS-7 cells, EGFr; 1 hour preincubation, 100 ng/ml EGF up to 90 min, Western blot",suppressed EGFr downregulation but not to the same extent as CPI
same,activation of MAP kinases Erk1/2 (check for inhibitor toxicity),"COS-7 cells, EGFr; COS-7 cells stimulated with EGF",normally
same,Ki,AEP,200 pM

# — patent US9050374B2, “Inhibitors against endosomal/lysosomal enzymes” (UNIVERSITY COURT OF THE UNIVERSITY OF DUNDEE, priority 2011, dated 2015)
